This test addresses T1, human IL13RA2 (human, UniProt Q14627 27-380).
T1 construct: also called interleukin 13 receptor subunit alpha 2; 13R2
T1 sequence: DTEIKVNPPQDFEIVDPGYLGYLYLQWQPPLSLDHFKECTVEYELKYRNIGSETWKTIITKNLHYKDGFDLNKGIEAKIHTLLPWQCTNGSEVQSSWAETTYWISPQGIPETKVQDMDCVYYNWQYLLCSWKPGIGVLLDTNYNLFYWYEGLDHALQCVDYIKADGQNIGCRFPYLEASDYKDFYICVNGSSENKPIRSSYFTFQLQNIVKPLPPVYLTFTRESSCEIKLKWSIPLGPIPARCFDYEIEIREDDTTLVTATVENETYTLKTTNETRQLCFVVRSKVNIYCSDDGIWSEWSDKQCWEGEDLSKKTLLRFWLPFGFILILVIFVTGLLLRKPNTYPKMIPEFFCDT
Description: flow cytometry on U87(+), H1299(+) and RPMI7951 cells; Alexa Fluor 488-labeled anti-mouse IgG secondary antibody. In general terms: A flow cytometer gives signals particle by particle.
Description: Flow cytometry analysis was carried out using LSRFortessa (BD Biosciences).

B1: 4E6 antibody (antibody, V domains shown)
VH: EVKLEESGPGLVAPSQSLSIACTVSGFSLTRHGIHWVRQPPGKNLEWLGVIWAGGSTNYNSALMSRLSIIKDNSKSQVFLKMNSLQTVDTAMYYCARDHFDSFDYWGQGTTLTVSS
VL: DIVLTQTPAIMSASLGERVTMTCTASSSVSSSYLHWYQQKPGSSPKLWIYSTSNLASGVPLRFSGSGSGTSYSLTISSMEAEDAATYYCHQYHRSPLTFGAGTKLELKR
notes: also called anti-IL13RA2 antibody; antibody produced by hybridoma NITE BP-03673
On to B1, for which the binding result was “binds”.

The record behind these values is US20260159594A1 (UNIVERSITY OF TOKYO, published 2026).
